The results in this text go back to publication PMC9544093.

Test [1] has as its target Bovine γ-globulin (Sigma-Aldrich G5009), a polyvalent antibody mixture of ~80 % IgG, ~10 % IgM and <10 % IgA (bovine). The test is described as follows: fluorescence polarisation; steady-state fluorescence anisotropy in a high-pressure cell; 0.43 uM dansyl-labelled γ-globulin titrated with 0-250 uM unlabelled γ-globulin; 0.5 M TMAO; 20 °C; p = 500 bar; fitted to a 1:1 (monomer to dimer) model.

Test [2] has the same target. The test can be described thus: fluorescence polarisation; steady-state fluorescence anisotropy; 0.43 uM dansyl-labelled γ-globulin titrated with 0-250 uM unlabelled γ-globulin; 0.5 M TMAO; 20 °C; pressure not named for this value (ambient implied); fitted to a 1:1 (monomer to dimer) model.
For test [3] the target is unchanged. The test can be described thus: fluorescence polarisation; steady-state fluorescence anisotropy in a high-pressure cell; 0.43 uM dansyl-labelled γ-globulin titrated with 0-250 uM unlabelled γ-globulin; neat buffer; 20 °C; p = 500 bar; fitted to a 1:1 (monomer to dimer) model. Background: Fluorescence polarisation rises when a labelled molecule tumbles more slowly, as on binding a larger partner.

Test [4] shares this target. The test is described as follows: fluorescence polarisation; steady-state fluorescence anisotropy; 0.43 uM dansyl-labelled γ-globulin titrated with 0-250 uM unlabelled γ-globulin; neat buffer; 20 °C; pressure not named for this value (ambient implied); fitted to a 1:1 (monomer to dimer) model.

“Bovine γ-globulin (Sigma-Aldrich G5009), a polyvalent antibody mixture of ~80 % IgG, ~10 % IgM and <10 % IgA”: the Ka in test [1] was 997 M⁻¹; in test [2], 592 M⁻¹; in test [3], 1530 M⁻¹; in test [4] it was 882 M⁻¹.
